These results are taken from patent publication US5849885.

The test has as its target casein fraction of whole cow milk. In words: competitive inhibition RIA of bLF in the casein pellet after centrifugation of whole cow milk, no addition (mean + SD, n=10); the same table gives 4 with +0.4M NaCl and 32 after acid precipitation.

On to “bovine lactoferrin (from UniProt P24627)”, for which the % of total bLF found in the casein fraction came out at 21%.
